B1: CA28-AEEAc-Lys-(PEG40k) (peptide)
peptide: ICVWQDWGAHRCTK
modifications: N-terminal acetyl; 1-methyl-tryptophan at position 4; disulfide Cys2-Cys12; AEEAc (8-amino-3,6-dioxaoctanoic acid) spacer between Thr13 and the C-terminal Lys; linear monofunctional 40 kD PEG coupled (NHS ester) to the Lys side chain; C-terminal amide
B2: CA28-AEEAc-Lys-(PEG30k) (peptide)
peptide: ICVWQDWGAHRCTK
modifications: N-terminal acetyl; 1-methyl-tryptophan at position 4; disulfide Cys2-Cys12; AEEAc (8-amino-3,6-dioxaoctanoic acid) spacer between Thr13 and the C-terminal Lys; linear monofunctional 30 kD PEG coupled (NHS ester) to the Lys side chain; C-terminal amide
B3: (CA28-AEEAc)8-PEG40k (peptide)
peptide: ICVWQDWGAHRCTK
modifications: N-terminal acetyl; 1-methyl-tryptophan at position 4; disulfide Cys2-Cys12; AEEAc spacer between Thr13 and the C-terminal Lys; Lys side chain coupled to one arm of an eight-arm 40 kD PEG (hexaglycerol octa(succinimidyloxyglutaryl)polyoxyethylene); C-terminal amide

Molecular target: human complement component C3 (human, UniProt P01024 23-1663)
Sequence (P01024 23-1663 limits assumed): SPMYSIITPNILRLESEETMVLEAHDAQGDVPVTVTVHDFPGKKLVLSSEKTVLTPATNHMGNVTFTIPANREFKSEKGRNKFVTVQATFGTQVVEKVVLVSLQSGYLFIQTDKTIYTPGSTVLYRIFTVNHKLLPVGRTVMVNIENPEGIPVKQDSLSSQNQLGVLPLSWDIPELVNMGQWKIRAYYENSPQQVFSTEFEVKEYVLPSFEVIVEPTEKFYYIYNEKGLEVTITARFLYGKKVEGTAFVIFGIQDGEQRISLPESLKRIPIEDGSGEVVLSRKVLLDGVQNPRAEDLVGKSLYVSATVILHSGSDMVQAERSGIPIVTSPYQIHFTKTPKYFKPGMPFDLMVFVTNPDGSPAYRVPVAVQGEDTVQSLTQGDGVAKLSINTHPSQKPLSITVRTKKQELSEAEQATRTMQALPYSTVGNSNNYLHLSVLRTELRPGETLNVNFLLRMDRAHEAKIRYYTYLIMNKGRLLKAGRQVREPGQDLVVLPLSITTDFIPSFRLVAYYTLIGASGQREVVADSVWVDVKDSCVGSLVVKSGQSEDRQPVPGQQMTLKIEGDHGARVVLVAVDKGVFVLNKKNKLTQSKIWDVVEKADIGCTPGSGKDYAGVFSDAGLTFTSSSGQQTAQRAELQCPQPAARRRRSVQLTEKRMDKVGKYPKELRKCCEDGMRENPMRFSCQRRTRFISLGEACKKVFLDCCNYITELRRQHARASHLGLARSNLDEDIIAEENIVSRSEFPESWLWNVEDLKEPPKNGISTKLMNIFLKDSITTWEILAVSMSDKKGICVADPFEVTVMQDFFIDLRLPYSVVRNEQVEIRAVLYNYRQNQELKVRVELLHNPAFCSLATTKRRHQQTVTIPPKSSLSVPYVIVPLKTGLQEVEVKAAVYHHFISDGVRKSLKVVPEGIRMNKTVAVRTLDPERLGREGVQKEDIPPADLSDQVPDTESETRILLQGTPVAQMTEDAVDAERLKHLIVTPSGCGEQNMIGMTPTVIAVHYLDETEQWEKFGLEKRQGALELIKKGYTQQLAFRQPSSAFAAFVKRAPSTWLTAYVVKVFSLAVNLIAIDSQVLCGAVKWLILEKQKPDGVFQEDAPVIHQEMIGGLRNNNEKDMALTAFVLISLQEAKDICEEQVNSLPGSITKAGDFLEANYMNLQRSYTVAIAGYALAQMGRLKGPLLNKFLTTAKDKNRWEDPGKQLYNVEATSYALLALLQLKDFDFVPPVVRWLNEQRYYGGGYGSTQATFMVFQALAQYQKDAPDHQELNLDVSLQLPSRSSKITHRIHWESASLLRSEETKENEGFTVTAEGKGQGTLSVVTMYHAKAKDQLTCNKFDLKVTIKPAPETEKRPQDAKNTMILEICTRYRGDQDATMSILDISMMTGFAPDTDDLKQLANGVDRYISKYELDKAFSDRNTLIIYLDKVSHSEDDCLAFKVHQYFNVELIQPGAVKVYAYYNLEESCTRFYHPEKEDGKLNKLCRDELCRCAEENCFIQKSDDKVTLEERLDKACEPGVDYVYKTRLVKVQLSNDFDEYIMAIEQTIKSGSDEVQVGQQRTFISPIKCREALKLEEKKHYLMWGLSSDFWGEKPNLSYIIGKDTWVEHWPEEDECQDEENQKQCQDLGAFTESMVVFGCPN
Test: cell-based or functional assay

Row | Binder | activity relative to CA28 on a molar basis, classical complement inhibition assay [%] | complement inhibiting activity relative to CA28 on a molar basis | IC50 on a molar basis (corrected for 7.5 CA28 moieties per molecule), classical complement inhibition assay (C3b deposition ELISA, human plasma) [nM]
1 | B1 | ~30 | ~30 % of the activity of CA28 | –
2 | B2 | ~30 | ~30 % of the activity of CA28 | –
3 | B3 | – | – | ~260

From patent publication US10125171 (APELLIS PHARMACEUTICALS, dated 2018)
